This note sets out measurements from US20140087995A1 (published 2014).

Experiment [1] addresses T1, human calcitonin receptor (human, UniProt P30988 25-474).
T1 construct: whole, on cells; Assay used cell membranes of the transfected BHK cells; also called hCTR; hCT
T1 sequence (looked up): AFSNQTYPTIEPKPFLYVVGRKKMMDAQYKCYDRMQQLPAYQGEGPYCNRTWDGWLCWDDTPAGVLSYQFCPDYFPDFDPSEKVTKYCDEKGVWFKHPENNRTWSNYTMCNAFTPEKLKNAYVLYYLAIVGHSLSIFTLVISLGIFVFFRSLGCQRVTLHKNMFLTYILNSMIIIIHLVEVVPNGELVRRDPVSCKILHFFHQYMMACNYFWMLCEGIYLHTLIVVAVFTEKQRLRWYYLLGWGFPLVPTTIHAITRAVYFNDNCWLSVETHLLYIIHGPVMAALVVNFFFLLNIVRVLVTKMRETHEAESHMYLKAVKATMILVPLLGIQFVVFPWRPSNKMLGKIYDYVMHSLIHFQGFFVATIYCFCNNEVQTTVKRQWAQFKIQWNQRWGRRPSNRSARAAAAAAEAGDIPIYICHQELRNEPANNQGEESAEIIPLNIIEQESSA
As to the kind of experiment: SPA radioligand competition (125I-calcitonin), membranes of BHK cells with human calcitonin receptor. An outline of the steps: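 BHK hCTR membranes 35 ng/μL + SPA beads 0.05 mg/well; buffer 50 mM Hepes pH 7.4, 1 mM CaCl2, 5 mM MgCl₂, 0.1% OA, 0.02% Tween20. 120 min, 25° C., shaking. Scintillation count; IC50 by one-site binding competition.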
Background: In a radioligand displacement assay an active substance lowers the binding of a labelled ligand.

Experiment [2] addresses T1, human calcitonin receptor. The experiment is described as follows: ratio IC50 hCTR / IC50 hAmylin-R of the two SPA competition assays; reference: human amylin receptor. The method in brief: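 Scintillation proximity competition binding on cell membranes at 35 ng/μL with SPA beads, in 50 mM Hepes pH 7.4, 1 mM CaCl2, 5 mM MgCl₂, 0.1% OA, 0.02% Tween20. Incubated 120 min at 25° C with shaking. IC₅₀ from one-site competition fit.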

Another experiment addresses T2, human amylin receptor (human, UniProt P30988 25-474; O60896 24-148, limits assumed).
T2 construct: whole, on cells; Assay used cell membranes of the Amylin 3(a)/CRE-luc BHK cells; the complex is called the human amylin receptor; also called hAmylin-R; hAmylinR
T2 sequence (looked up) 1: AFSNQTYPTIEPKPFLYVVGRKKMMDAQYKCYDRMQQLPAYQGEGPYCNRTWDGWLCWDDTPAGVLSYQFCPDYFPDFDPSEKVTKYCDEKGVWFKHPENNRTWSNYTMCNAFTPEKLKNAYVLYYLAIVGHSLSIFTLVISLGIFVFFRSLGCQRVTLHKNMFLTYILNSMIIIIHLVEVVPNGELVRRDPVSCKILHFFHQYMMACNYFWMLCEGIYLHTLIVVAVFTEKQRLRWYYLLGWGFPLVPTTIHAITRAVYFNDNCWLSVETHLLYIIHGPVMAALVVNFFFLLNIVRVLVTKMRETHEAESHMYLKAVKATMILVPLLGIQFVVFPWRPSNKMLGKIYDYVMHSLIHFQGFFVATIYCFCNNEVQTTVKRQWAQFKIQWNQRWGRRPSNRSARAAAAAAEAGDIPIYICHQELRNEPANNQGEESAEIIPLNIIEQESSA
T2 sequence (looked up) 2: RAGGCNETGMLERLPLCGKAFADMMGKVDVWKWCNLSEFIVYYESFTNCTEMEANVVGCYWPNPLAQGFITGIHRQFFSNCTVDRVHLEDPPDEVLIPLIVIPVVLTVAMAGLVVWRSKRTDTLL
As to the kind of experiment: SPA radioligand competition (125I-rat amylin), membranes of BHK cells with human calcitonin receptor + RAMP-3. The procedure: The binding assay was performed using scintillation proximity assay (SPA) beads (RPNQ0001) from PerkinElmer and cell membranes from the Amylin 3(a)/CRE-luc cells (as described in Assay (II)) were used. Membranes were prepared in the following way; the cells were rinsed with PBS and incubated with Versene for approximately 5 min before harvesting. The cells were flushed with PBS and the cell-suspension was centrifuged for 5 min at 1000 rpm. Cells were homogenized (ultrathurrax) in a buffer containing 20 mM Na-HEPES and 10 mM EDTA (pH 7.4) and centrifuged at 20.000 rpm for 15 min. The resulting pellet was resuspended, homogenized and centrifuged (20.000 rpm, 15 min) in a buffer containing 20 mM Na-HEPES and 0.1 mM EDTA (pH 7.4, buffer 2). The resulting pellet was resuspended in buffer 2 and protein concentration was measured (BCA protein Assay, Pierce). The homogenate was kept cold during the whole procedure. The membranes were kept at −80° C. until use. The assay was performed in a 384 well Optiplate (PerkinElmer) in a total volume of 40 ul. Membranes were mixed with SPA beads. Final concentration of membranes 35 ng/μL final and SPA beads was 0.05 mg/well. Test-compounds were dissolved in DMSO and further diluted in assay buffer (50 mM Hepes, pH 7.4, 1 mM CaCl2, 5 mM MgCl₂, 0.1% OA and 0.02% Tween20). […] The final mixture was incubated with shaking at 400 rpm for 120 min at 25° C. prior to centrifugation (1500 rpm, 10 min). Samples were analyzed on TopCounter™ (Packard). The IC₅₀ was calculated using (one site binding competition analysis) GraphPad Prism5 as a measure of receptor affinity.

Numbered stars: 1 amine (or outer) side, 2 acyl side, 3 side chain; on linkers, the order of the positions; unused ones are H or OH. Bridge positions count the residues as written; N and C are the ends. Side chains are listed from the residue outwards. Ends that are not written are not given here. * marks the point of attachment. C20 diacid = O=C(O)CCCCCCCCCCCCCCCCCCC(=O)*; γGlu = O=C(O)[C@H](CCC(=O)[*:2])N[*:1]

Usually IC50 stands for the point on the concentration scale where inhibition reaches its midpoint.

B1: N^α1 N^α1-[(4S)-4-carboxy-4-[[(4S)-4-carboxy-4-(19-carboxynonadecanoylamino)butanoyl]amino]butanoyl]-[Glu14,Arg17,Pro21,Pro27]-h-amylin (peptide)
peptide: {C20 diacid-γGlu-γGlu}-KCNTATCATQRLAEFLRHSSPNFGAIPSSTNVGSNTY-NH2
modifications: disulfide 2-7
SMILES: CC[C@H](C)[C@H](NC(=O)[C@H](C)NC(=O)CNC(=O)[C@H](Cc1ccccc1)NC(=O)[C@H](CC(N)=O)NC(=O)[C@@H]1CCCN1C(=O)[C@H](CO)NC(=O)[C@H](CO)NC(=O)[C@H](Cc1c[nH]cn1)NC(=O)[C@H](CCCNC(=N)N)NC(=O)[C@H](CC(C)C)NC(=O)[C@H](Cc1ccccc1)NC(=O)[C@H](CCC(=O)O)NC(=O)[C@H](C)NC(=O)[C@H](CC(C)C)NC(=O)[C@H](CCCNC(=N)N)NC(=O)[C@H](CCC(N)=O)NC(=O)[C@@H](NC(=O)[C@H](C)NC(=O)[C@@H]1CSSC[C@H](NC(=O)[C@H](CCCCN)NC(=O)CC[C@H](NC(=O)CC[C@H](NC(=O)CCCCCCCCCCCCCCCCCCC(=O)O)C(=O)O)C(=O)O)C(=O)N[C@@H](CC(N)=O)C(=O)N[C@@H]([C@@H](C)O)C(=O)N[C@@H](C)C(=O)N[C@@H]([C@@H](C)O)C(=O)N1)[C@@H](C)O)C(=O)N1CCC[C@H]1C(=O)N[C@@H](CO)C(=O)N[C@@H](CO)C(=O)N[C@H](C(=O)N[C@@H](CC(N)=O)C(=O)N[C@H](C(=O)NCC(=O)N[C@@H](CO)C(=O)N[C@@H](CC(N)=O)C(=O)N[C@H](C(=O)N[C@@H](Cc1ccc(O)cc1)C(N)=O)[C@@H](C)O)C(C)C)[C@@H](C)O
notes: Synthetic analogue; also called compound 15
Regarding B1, the IC50 in experiment [1] was found to be 15.5 nM; in the experiment with human amylin receptor it was 0.597 nM. Also, the “Ratio hCT/hAmylin binding” value in experiment [2] was 26.

B2: N^α1-[(4S)-4-carboxy-4-(19-carboxynonadecanoylamino)butanoyl]-[Arg17,Pro21,Pro27,Lys35]-h-amylin (peptide)
peptide: KCNTATCATQRLANFLRHSSPNFGAIPSSTNVGSKTY
modifications: C20 diacid-gGlu on the alpha amino group of the N-terminal residue (Lys1); disulfide Cys2-Cys7; C-terminal amide
notes: Synthetic analogue; also called compound 34
Regarding B2, the IC50 is 73.4 nM in experiment [1] and 1.14 nM in the experiment with human amylin receptor. Besides, the “Ratio hCT/hAmylin binding” value in experiment [2] turned out to be 64.4.

B3: N^ε1-[(4S)-4-carboxy-4-[[(4S)-4-carboxy-4-(19-carboxynonadecanoylamino)butanoyl]amino]butanoyl]-[Asp14,Arg17,Pro21,Pro27,Asp35]-h-amylin (peptide)
peptide: K([γGlu-γGlu-C20 diacid])CNTATCATQRLADFLRHSSPNFGAIPSSTNVGSDTY-NH2
modifications: disulfide 2-7; N-terminus assumed
SMILES: CC[C@H](C)[C@H](NC(=O)[C@H](C)NC(=O)CNC(=O)[C@H](Cc1ccccc1)NC(=O)[C@H](CC(N)=O)NC(=O)[C@@H]1CCCN1C(=O)[C@H](CO)NC(=O)[C@H](CO)NC(=O)[C@H](Cc1c[nH]cn1)NC(=O)[C@H](CCCNC(=N)N)NC(=O)[C@H](CC(C)C)NC(=O)[C@H](Cc1ccccc1)NC(=O)[C@H](CC(=O)O)NC(=O)[C@H](C)NC(=O)[C@H](CC(C)C)NC(=O)[C@H](CCCNC(=N)N)NC(=O)[C@H](CCC(N)=O)NC(=O)[C@@H](NC(=O)[C@H](C)NC(=O)[C@@H]1CSSC[C@H](NC(=O)[C@@H](N)CCCCNC(=O)CC[C@H](NC(=O)CC[C@H](NC(=O)CCCCCCCCCCCCCCCCCCC(=O)O)C(=O)O)C(=O)O)C(=O)N[C@@H](CC(N)=O)C(=O)N[C@@H]([C@@H](C)O)C(=O)N[C@@H](C)C(=O)N[C@@H]([C@@H](C)O)C(=O)N1)[C@@H](C)O)C(=O)N1CCC[C@H]1C(=O)N[C@@H](CO)C(=O)N[C@@H](CO)C(=O)N[C@H](C(=O)N[C@@H](CC(N)=O)C(=O)N[C@H](C(=O)NCC(=O)N[C@@H](CO)C(=O)N[C@@H](CC(=O)O)C(=O)N[C@H](C(=O)N[C@@H](Cc1ccc(O)cc1)C(N)=O)[C@@H](C)O)C(C)C)[C@@H](C)O
notes: Synthetic analogue; also called compound 2
As for B3, the values for the IC50 (in experiment [1]; with human amylin receptor) were 19.5 nM and 0.411 nM, respectively. The “Ratio hCT/hAmylin binding” value in experiment [2] turned out to be 47.5.
